Results on six molecules are retold here after publication PMC11098746 (2024).

What all share (experiment): AVEXIS screen signal:noise (double-corrected)
The target in experiment [1] is T1, ADP098.
T1 chain: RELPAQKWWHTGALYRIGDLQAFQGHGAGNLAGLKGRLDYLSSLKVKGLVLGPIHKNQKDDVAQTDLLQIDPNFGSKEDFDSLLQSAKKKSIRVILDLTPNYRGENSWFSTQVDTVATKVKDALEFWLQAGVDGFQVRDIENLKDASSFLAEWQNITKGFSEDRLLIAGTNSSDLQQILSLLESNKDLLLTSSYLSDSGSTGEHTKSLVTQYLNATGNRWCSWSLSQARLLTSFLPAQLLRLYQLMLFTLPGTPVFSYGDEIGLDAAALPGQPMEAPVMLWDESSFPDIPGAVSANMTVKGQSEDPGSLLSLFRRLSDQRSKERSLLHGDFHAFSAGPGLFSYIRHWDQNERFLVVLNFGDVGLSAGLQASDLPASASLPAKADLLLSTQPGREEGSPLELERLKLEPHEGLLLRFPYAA

Experiment [2] addresses T2, ADP156.
T2 chain: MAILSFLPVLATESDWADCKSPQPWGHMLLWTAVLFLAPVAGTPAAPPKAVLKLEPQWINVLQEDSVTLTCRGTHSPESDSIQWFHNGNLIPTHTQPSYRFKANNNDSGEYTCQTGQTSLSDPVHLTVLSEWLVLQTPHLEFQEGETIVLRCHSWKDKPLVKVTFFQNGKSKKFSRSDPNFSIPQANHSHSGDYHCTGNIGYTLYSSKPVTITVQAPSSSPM

The target of experiment [3] is ADP369.
For experiment [4], the target named is T3, ADP389.
T3 chain: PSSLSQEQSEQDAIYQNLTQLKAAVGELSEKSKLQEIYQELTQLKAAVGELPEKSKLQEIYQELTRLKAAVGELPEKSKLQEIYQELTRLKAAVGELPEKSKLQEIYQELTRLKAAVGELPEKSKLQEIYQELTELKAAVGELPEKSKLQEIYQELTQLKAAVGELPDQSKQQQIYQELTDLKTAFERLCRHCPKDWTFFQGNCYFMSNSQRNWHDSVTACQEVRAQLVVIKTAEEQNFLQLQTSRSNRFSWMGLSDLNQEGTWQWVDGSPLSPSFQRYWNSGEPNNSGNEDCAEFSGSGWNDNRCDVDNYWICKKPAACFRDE

In experiment [5] the target is T4, ADP341.
T4 chain: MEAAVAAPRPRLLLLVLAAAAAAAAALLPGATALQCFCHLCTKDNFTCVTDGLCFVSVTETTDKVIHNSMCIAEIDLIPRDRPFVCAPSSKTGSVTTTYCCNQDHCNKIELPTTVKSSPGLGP

Experiment [6] deals with ADP376.
Experiment [7] deals with T5, ADP267.
T5 chain: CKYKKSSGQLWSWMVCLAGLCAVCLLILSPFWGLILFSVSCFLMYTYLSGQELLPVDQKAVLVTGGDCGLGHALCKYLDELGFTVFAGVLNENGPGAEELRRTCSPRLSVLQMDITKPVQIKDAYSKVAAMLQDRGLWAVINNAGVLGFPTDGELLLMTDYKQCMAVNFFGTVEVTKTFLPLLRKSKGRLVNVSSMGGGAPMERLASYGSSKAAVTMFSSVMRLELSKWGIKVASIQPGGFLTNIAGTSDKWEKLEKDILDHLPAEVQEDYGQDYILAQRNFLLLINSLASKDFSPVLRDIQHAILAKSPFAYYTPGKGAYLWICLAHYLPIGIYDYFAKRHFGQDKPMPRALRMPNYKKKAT

Experiment [8] concerns the target T6, ADP298.
T6 chain: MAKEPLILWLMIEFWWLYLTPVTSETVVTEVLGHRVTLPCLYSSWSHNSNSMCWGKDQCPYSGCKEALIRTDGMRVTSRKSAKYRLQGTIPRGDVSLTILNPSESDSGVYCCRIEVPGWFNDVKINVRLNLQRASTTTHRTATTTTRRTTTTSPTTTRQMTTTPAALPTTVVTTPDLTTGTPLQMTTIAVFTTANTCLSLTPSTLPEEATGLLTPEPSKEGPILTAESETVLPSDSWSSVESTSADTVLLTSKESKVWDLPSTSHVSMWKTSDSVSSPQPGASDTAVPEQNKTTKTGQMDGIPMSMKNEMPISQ

No end group written: not given here.

B1: ADP169 (protein)
chain: LIRNSNTPQAFLIPELNNNEKNEFNNNEKNEMNNNLNNEFNNNEENCDIQKIAEEMMENLLNENDMYTNIMLSLQNRLSDDYLCSEPKYENICIHEKDKISLSFPCSNPKYEKLIHKFTFKKLCNSKAAFNNALLKSFIEEDEEQNTFSLMLKQFKILLTCVDDELKDIYKESIDLLVDLKTSITELTQKLWSGKMVNVLKKREFLITGILCELRNGNKAPLISKSLEFENLGILKMNNEELLNEAYNAFSDYYYFFPYFIQKLLEKGGMIERLIKIHENLAKYRTKDMVNKINAQSKGEVLNNEDILNKLNAYKHYTKHGATSFIQSREVKIVNQNVNNDDTTKNQQQNVNNNEKLNNNNNNNNNQQVNNNNNNNNQQVNNNNNNNNNQVNNNNNNNNNQVNNNNYNNNNQVNNNNNNNQQVNNNNNYNNQLNNNNFNNNLQVNKNDKHVPKNNHATATHTNNILYNPLYSINPEKPKDIIKLLKDLIKYLHIVKFENNEPTTNIDEEGIRKLLENSFFDLNDDILIVRLLLKPQTVILTVIQSFMLMTPSPSRDAKAYCKKALINDQLVPTNDANILSEENELVNNFATKYVLIYEKMKLQELKEMEESKLKMKYSKTNLAALQVTNPQNNKDKNDASNKNNNPNNAATPLIAVVTDLSGEKTEDIINNNVDIATLSVGVQNTFQGP
modifications: bait human Fc-tagged dimer; N-glycosylation sequons mutated in Plasmodium baits
B1 showed a binding score in experiment [1] of 11.2.

B2: ADP183 (protein)
chain: AEEHEITHKTYFDITIDDKPLGRIVFGLYGKVAPKTVENFVSICKGTVVDGKMLHYTNSIFHRIIPNFMAQGGDITNFNGAGGLSIYGKKFEDENFKVNHAKRGLLSMANAGKNTNGAQFFILFIPTPWLDGRHVVFGEVVEGLDKLVHIEAVGTDSGEPLKRVLVKESGELPL
modifications: bait human Fc-tagged dimer; N-glycosylation sequons mutated in Plasmodium baits
On to B2, for which the binding score in experiment [2] amounted to 5.67; in experiment [3] it was 6.98.

B3: ADP236 (protein)
chain: EFVKGSYESKGYPLIHLMNNNEYTGSANNFIKNNLINLLYIYKDVKFDEEKTLGIDSFLDIEDDTKIERLIKEKMLYINKYINSRQMIKYSGFIYLYEIIEKKNFYFLLHFLMTNNNNGLIIILPEDMYINVDEYYRINKINKLNDQNKKNKVVSQDLLEKRIMFVQSLILNMKLQQSIYFIKNNKDIEKIYENYQSKFAYFDLTRNVAISPISKIQNVYKMNSKSLYYFLNKNNNIHINTIFNKQQDNQAFLLTKQKTIIICADFNVFNIFSDLPSNTAFTNSNLITIQNLIKLFYDVYNKEQVNYNILFFFTNYYYGIQDFLNSINVIFKENIEFVICLDNLNNADFYIYESNKAQPQNVQAFYRILNNIVKGSIKKNVQMVNEKIKIHSKHLPSLHEYFVLNKINSFSLSSSKKNNNMIFLNKFPMLQPKLNIQNVKNNIAIIFKSLYLYMTQKKTDQKENTQQEQSIEKNEKEKSMLTYINKNMASNDDMNTIDYNLNKYNKFFIYKEDTLKLFNYFKTIINSNIADTNFLIKDYKLTTDKKQKFFYQKYAHVTFSMAISYVFH
modifications: bait human Fc-tagged dimer; N-glycosylation sequons mutated in Plasmodium baits
As for B3, the binding score in experiment [4] amounted to 5.5.

For MNEAKEEKTNMRNNHLSRVTIEILPSDEDNDIFDINDALLDELIGINNI (also: human Fc-tagged dimer) [ADP256], the binding score in experiment [5] worked out at 32.7.

B4: ADP398 (protein)
chain: SNHIKSVNRCFIPFISEYIYKQKNRKNNIAYDSSNSHYNDKIIPCGNYNKQLKYKINFCRNLYFNNKNEYNRICSRNKLNFHNIQTDNTIYKPKKKYYEVGKVREKIKMYTLFKDDKINTLKCNEEESVTSETINKHDSSVKVKGRRKKNIASNENIMNPNNKAVSSINTNLADSSNNKNDNSLNSKKNDNTLNSKKNDNTLNSKKNDNTLNSKNNNNALNSKNNNNALNSKKSNNAYNDKHIDHIIPEGKNKINNNIDVKHNINNKLNEINEEPYEDTHNKEENSANKNDNDEKRKEENNNIARRYIKNDQMSYNNINTNSNEYDKNAATLDETYIGKTFEGYVYSVNKNAACIKLKNINKYGLLFKNKANLGDDIEDMNDFFEKDQPVHVKILGINTKKNIFYLGNIIKYNENIKLSKGEYSKGLITKVCDSYCFIKVLKNGATGYLHKSKLFCMNDKEKKNNDNQNYDNPNNDNPNYDNQNYDNQNYNNPNYDHPNYDNQNYDNQNYNNPNNDYSTSQLYNSDNLQMDFIYKLQFTKIFNIWDIIDVEILGTPQNDYKSNYILTIPRGSKTFKKILNYLNVLKENEDINNIQYKGDYIYSIDNNKNDNIIDSDINNHHINNKKKKKNLYDIQNNMNHAPFNKFHTEDEYLFNDHVQENVHTFYEKNKKYKITYDKENNHKMNKAYYLKKNKELPFNNKFKKIIKNIYDLPNTISLSMLSKTIKIPLASIKKYFIIHENKEYNSAYKINSEQIKRICQHFKIDCNVEQRDDNVVTKVNGATKDCQEKVFKNVAQDRLKEGEQERVIKVEAKIKNDEMVMQEQKDTKEEKHMDVQFIEEKDINVQHINVQDMDVQDMDVQDINVQDMDVQNINVQDINIQDMDVQNINNAITLNKATSCQTDESRDAPGGDQNEALDEKDSMEKSKEKKKKKGKSRKKNKDTNLALKSDSIQKSKTTLDDKKRNVVVTFIGHINHGKTSLFDYICKTNEQKKEYGLITQNIRAFKATVRNNFAFTLVDTPGHEAFMPMRSRGVKISDLSILVISGDEGIQEQTVECIKLIKEFNIKIIIAITKVDIPNVDVDRIINDLLYHDITTELNGGEIQVVECSIYKEESIDKLLDAIYLESEFLNLQTNPDKKHEQAQGVVLDSYIDKNGIVSINLLQNGVLNINDHFYTGSSYGKVKILKDHLNKNIKSAYPSDPIKIIGYNKNSVPVAGDKFYVVENEALAKEIAEHNKNKMLTMEINNFAYDQTNMNRYKDFIISRENKIGGSSGILGENNLKNDIDGNMARDDNMARDDNMASDDNMARDGNRANNDNIASDDNMANDYDKIKETKMYTNNKAFQKDDFLKIHLNNANENVINMDPSTHIGKNEIKTIYSNYIIKCDKQGSIEVLKNCMLKLQKEDSICKIKNKIIYADIGNVASSDIKYATSFNAAIIAFGVKLSNDIKGSKNSKGSKNHNNYPIIYSNVLYELIENVEKEMEKKLSKKPMGELKGTAQILKVFNIAKLGKVAGCIVKKGTISINSNIRILRNDKVIYMGKIISIKIVKEEKTQVTEADECGIGFDNFLDFEPNDIIEAYEN
modifications: bait human Fc-tagged dimer; N-glycosylation sequons mutated in Plasmodium baits
Molecule B4 displayed a binding score in experiment [6] of 10.1.

B5: ADP397 (protein)
chain: YLSSENQKKTIATVHNNARTNTLKKNNANNNNANDIFGLSPSEVPNLIDDEEEYEILEGVKNNADLTRSTNIDHPSPSSTMIDLDNIITEISKLKKKKLKKEMNNKLEQQTNQNNNAIHHNNENEINTFTQNIKTNSNELKNQDSSNSLISTNSNTMDELLLYSTNSEDNLDISFGELQLYENSDEDTSDYEYVNEDYSVNHIFSNDAEESFNILEDVENIALSSSNRYQYSPIGPYKKKHTKVFENFKMTRNYDEFLKLYNLKDSSDNQEEYYELLAGEPFKLNSYYYRDVKYENVKKYIFKEIYDNIQNIATENKIIVSKKEELFFYFIKSLLKNNFICLSYEEEENLLSESKLLLEAMISKKIQ
modifications: bait human Fc-tagged dimer; N-glycosylation sequons mutated in Plasmodium baits
On to B5, for which the results for the binding score in experiment [7] and in experiment [8] were 21.9 and 7.9, respectively.
